Results: PMC4957051, “Molecular Mechanism of Z α1-Antitrypsin Deficiency*” (The Journal of Biological Chemistry, 2016)
Changes are numbered by the printed parent chain. Names and notes keep the numbering of the source.

B1: α1-AT-S292C-T339C-E342A, reduced form (natural protein, human, UniProt P01009 25-418, looked up)
chain: EDPQGDAAQKTDTSHHDQDHPTFNKITPNLAEFAFSLYRQLAHQSNSTNIFFSPVSIATAFAMLSLGTKADTHDEILEGLNFNLTEIPEAQIHEGFQELLRTLNQPDSQLQLTTGNGLFLSEGLKLVDKFLEDVKKLYHSEAFTVNFGDTEEAKKQINDYVEKGTQGKIVDLVKELDRDTVFALVNYIFFKGKWERPFEVKDTEEEDFHVDQVTTVKVPMMKRLGMFNIQHSKKLSSWVLLMKYLGNATAIFFLPDEGKLQHLENELTHDIITKFLENEDRRSASLHLPKLCITGTYDLKSVLGQLGITKVFSNGADLSGVTEEAPLKLSKAVHKAVLCIDAKGTEAAGAMFLEAIPRSIPPEVKFNKPFVFLMIEQNTKSPLFMGKVVNPTQK
notes: α1-antitrypsin (α1-AT), human cDNA in pQE31, Pittsburgh backbone (M358R and C232S) with S292C, T339C and E342A; Same chain as m6, with the engineered disulfide reduced; also called α1-AT-SS-E342A (reduced); source: E. coli, purified; reduced form prepared
B2: α1-AT E342A (Pittsburgh backbone) (natural protein, human, UniProt P01009 25-418, looked up)
chain: B1 chain with C292S, C339T
notes: α1-antitrypsin (α1-AT), human cDNA in pQE31, Pittsburgh backbone (M358R and C232S) with E342A; also called E342A mutant; source: E. coli, purified from the soluble fraction of the lysate

Columns and labels:
thrombin = assay: rates and stoichiometries of protease inhibition; as described previously (ref. 48); each value the average of three independent measurements
activated factor X (FXa) = assay: as above
[1] = molecular target: T1, α1-AT E342C (Pittsburgh backbone) (human, UniProt P01009 25-418, M358R | C232S | E342C); assay: native gel or EMSA; peptide annealing: α1-AT variants (0.5 mg/ml) incubated with 100-fold molar excess of 6-mer peptide at 37 °C for different time intervals, then 8% native gel with 7 M urea; the binary complex resists urea; settings: both partners purified
T1 construct: α1-antitrypsin (α1-AT), human cDNA in pQE31, Pittsburgh backbone (M358R and C232S) with E342C; also called E342C mutant; source: E. coli, purified from the soluble fraction of the lysate

[2] = molecular target: B2; assay: as above; settings: both partners purified
[3] = molecular target: B1; assay: as above; settings: both partners purified
[4] = molecular target: T2, α1-AT-S292C-T339C-E342A, oxidized form (disulfide between s5A and s6A) (human, UniProt P01009 25-418, M358R | C232S | S292C | T339C | E342A, disulfide bond linking s5A and s6A (Cys-292 and Cys-339)); assay: as above; settings: both partners purified
T2 construct: α1-antitrypsin (α1-AT), human cDNA in pQE31, Pittsburgh backbone (M358R and C232S) with S292C, T339C and E342A; Same chain as m7, with the engineered disulfide formed; also called α1-AT-SS-E342A (oxidized); source: E. coli, purified; oxidized form prepared

[5] = molecular target: T3, recombinant wild type α1-antitrypsin (α1-AT Pittsburgh backbone, M358R and C232S) (human, UniProt P01009 25-418, M358R | C232S); assay: as above; settings: both partners purified
T3 construct: α1-antitrypsin (α1-AT), human cDNA in pQE31, Pittsburgh backbone (M358R and C232S); probably the mature protein behind the tag; also called Wt; WT; source: E. coli, purified from the soluble fraction of the lysate

[6] = molecular target: the molecule itself; assay: native gel or EMSA; thermal stability: α1-AT variants incubated at various temperatures in 10 mM Tris-HCl, pH 7.4, 0.1 M NaCl, 0.5 M urea for 30 min, then native gel

Row | SI (stoichiometry of inhibition) (thrombin) | SI (stoichiometry of inhibition) (activated factor X (FXa)) | Molecule | binding result [6] | also measured
1 | 3 | 3 | α1-AT E342C (Pittsburgh backbone) (from UniProt P01009 25-418) (natural protein) | – | –
2 | 3.4 | 3.4 | α1-AT E342C-mod (E342C with Cys-342 chemically converted to a lysine-like residue) (from UniProt P01009 25-418) (natural protein) | – | –
3 | 1.6 | – | recombinant wild type α1-antitrypsin (α1-AT Pittsburgh backbone, M358R and C232S) (from UniProt P01009 25-418) (natural protein) | – | –
4 | – | – | FLEAIG [6-mer peptide (FLEAIG) derived from the P7 to P2 sequence of the α1-AT reactive loop] | – | binding result [1]: binds; binding result [2]: binds; binding result [3]: binds; binding result [4]: binds; binding result [5]: binds
5 | – | – | B1 | binds | –
6 | – | – | B2 | binds | –
